This note sets out measurements from patent publication US20210155697A1 (UNITY BIOTECHNOLOGY, published 2021).

By EC50 is commonly meant the concentration that produces a half-maximal response.

Test [1] has as its target T1, human full-length Tie2 on cells (human, UniProt Q02763 23-1124).
T1 construct: used here for Tie2 native on HUVEC and full-length Tie2 overexpressed on HEK293; also called Human Tie2; huTie2
In words: flow cytometry on HEK293/Human Tie2 cells, mAb at 10 ug/mL. Also on record: unit not given here. The source says:
(§1) Briefly, expression plasmids containing the full-length Tie2 coding sequence for each species were used to transfect primary human endothelial cells (HUVECs) as well as human embryonic kidney (HEK293) cells. A stable cell population was selected by treating transfectants with puromycin antibiotic over the course of 2 weeks and single cell clones were generated using fluorescence activated cell sorting. Upon confirmation of cell surface expression of these Tie2 variants, cell lines were used to determine apparent Kd (EC50) values of anti-Tie2 antibodies on the various Tie2 proteins. […] Cells were labeled with decreasing concentrations of anti-Tie2 antibodies #1, #2, and #3 (10, 5, 2.5, 1, […], 0.63, 0.31, and 0.16 ug/mL) or non-specific hIgG1 antibody (10 ug/mL), followed by labeling with a rabbit anti-human IgG antibody conjugated to an Alexa Fluor 488 fluorophore (20 ug/ml). EC50 values were generated using ForeCyt™ software.
Target sequence in this assay (Q02763 23-1124 limits assumed): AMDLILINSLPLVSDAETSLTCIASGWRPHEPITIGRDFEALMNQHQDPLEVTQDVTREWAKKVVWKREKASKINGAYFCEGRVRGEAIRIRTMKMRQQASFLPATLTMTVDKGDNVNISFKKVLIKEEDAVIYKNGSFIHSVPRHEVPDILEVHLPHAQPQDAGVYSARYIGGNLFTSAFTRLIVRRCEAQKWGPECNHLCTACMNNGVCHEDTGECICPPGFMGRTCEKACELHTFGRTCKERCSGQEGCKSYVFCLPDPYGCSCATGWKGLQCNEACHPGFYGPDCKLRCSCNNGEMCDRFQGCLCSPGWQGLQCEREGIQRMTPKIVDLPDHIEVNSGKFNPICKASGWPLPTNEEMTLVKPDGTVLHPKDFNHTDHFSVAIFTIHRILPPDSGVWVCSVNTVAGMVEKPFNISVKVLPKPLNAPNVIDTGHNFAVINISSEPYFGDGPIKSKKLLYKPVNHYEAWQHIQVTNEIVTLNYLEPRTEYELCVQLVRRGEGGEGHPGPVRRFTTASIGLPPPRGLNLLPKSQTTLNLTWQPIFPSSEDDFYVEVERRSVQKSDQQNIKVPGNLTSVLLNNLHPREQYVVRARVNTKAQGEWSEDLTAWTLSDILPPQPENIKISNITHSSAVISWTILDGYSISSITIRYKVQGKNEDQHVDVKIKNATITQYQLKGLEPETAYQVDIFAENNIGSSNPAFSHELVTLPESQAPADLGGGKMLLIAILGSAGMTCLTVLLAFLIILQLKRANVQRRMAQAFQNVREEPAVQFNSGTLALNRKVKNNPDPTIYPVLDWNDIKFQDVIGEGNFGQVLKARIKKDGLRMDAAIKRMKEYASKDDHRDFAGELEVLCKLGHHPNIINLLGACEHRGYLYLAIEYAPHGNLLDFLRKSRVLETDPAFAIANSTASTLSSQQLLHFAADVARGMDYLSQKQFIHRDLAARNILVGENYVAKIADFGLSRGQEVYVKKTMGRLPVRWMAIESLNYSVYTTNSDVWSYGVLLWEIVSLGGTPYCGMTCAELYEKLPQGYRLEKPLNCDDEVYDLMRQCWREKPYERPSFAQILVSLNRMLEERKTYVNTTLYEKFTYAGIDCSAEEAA

In test [2] the target is T2, murine full-length Tie2 on HEK293 cells (mouse, UniProt Q02858 23-1122).
T2 construct: whole, on cells; also called HEK293/Murine Tie2; HEK/mTie2
In words: flow cytometry on HEK/mTie2 cells; Apparent Kd (EC50 binding).
Excerpt: as §1
For orientation: In flow cytometry, cells or beads pass a laser one at a time.

The target of test [3] is T1, human full-length Tie2 on cells. As to the kind of experiment: flow cytometry on HEK/huTie2 cells; Apparent Kd (EC50 binding).
Excerpt: as §1

Test [4] addresses T3, rat full-length Tie2 on HEK cells (rat, UniProt A0ABK0L6J5 19-1116).
T3 construct: whole, on cells; also called HEK/ratTie2
As to the kind of experiment: flow cytometry on HEK/ratTie2 cells; Apparent Kd (EC50 binding).
Excerpt: as §1

The target of test [5] is T4, cynomolgus monkey full-length Tie2 on HEK293 cells (cynomolgus monkey, UniProt G7PS68 23-1124).
T4 construct: whole, on cells; also called HEK293/Cyno Tie2; HEK/cyno Tie2
In words: flow cytometry on HEK293/Cyno Tie2 cells, mAb at 10 ug/mL.
Excerpt: as §1

For test [6], the target named is T4, cynomolgus monkey full-length Tie2 on …. As to the kind of experiment: flow cytometry on HEK/cyno Tie2 cells; Apparent Kd (EC50 binding).
Excerpt: as §1

The target in test [7] is T1, human full-length Tie2 on cells. In words: cell-based or functional assay.
In test [8] the target is T2, murine full-length Tie2 on HEK293 cells. As to the kind of experiment: flow cytometry on HEK293/Murine Tie2 cells, mAb at 10 ug/mL.
Excerpt: as §1
Target sequence in this assay (Q02858 23-1122): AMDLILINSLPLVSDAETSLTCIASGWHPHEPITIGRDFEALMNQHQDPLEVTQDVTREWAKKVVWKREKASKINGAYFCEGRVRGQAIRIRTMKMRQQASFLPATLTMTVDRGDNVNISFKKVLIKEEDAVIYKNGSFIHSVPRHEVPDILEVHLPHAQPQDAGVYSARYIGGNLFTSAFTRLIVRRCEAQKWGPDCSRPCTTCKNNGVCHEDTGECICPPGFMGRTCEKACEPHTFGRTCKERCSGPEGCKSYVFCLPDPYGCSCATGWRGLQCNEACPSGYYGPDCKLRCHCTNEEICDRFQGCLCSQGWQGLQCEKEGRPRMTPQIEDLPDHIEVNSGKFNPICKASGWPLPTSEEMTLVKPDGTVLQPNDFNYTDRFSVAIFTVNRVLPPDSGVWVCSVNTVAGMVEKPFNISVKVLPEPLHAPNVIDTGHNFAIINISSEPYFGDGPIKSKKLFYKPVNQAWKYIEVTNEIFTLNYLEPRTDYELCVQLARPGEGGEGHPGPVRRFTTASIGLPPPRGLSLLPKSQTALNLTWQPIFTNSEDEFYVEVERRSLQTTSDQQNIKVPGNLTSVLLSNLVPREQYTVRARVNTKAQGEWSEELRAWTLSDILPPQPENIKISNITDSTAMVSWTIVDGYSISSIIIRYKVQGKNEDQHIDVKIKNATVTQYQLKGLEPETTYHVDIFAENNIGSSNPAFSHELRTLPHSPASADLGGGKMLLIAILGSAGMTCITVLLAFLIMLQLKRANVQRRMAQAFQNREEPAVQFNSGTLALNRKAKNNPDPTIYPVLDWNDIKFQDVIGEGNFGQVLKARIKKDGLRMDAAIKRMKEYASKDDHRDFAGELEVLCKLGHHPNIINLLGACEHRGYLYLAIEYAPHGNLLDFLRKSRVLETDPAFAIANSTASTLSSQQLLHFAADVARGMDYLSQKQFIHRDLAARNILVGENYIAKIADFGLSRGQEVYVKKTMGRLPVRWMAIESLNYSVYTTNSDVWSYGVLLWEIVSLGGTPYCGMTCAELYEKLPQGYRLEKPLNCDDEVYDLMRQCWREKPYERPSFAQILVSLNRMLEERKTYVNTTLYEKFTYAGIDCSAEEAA

Test [9] addresses T5, rabbit full-length Tie2 on HEK cells (rabbit).
T5 chain: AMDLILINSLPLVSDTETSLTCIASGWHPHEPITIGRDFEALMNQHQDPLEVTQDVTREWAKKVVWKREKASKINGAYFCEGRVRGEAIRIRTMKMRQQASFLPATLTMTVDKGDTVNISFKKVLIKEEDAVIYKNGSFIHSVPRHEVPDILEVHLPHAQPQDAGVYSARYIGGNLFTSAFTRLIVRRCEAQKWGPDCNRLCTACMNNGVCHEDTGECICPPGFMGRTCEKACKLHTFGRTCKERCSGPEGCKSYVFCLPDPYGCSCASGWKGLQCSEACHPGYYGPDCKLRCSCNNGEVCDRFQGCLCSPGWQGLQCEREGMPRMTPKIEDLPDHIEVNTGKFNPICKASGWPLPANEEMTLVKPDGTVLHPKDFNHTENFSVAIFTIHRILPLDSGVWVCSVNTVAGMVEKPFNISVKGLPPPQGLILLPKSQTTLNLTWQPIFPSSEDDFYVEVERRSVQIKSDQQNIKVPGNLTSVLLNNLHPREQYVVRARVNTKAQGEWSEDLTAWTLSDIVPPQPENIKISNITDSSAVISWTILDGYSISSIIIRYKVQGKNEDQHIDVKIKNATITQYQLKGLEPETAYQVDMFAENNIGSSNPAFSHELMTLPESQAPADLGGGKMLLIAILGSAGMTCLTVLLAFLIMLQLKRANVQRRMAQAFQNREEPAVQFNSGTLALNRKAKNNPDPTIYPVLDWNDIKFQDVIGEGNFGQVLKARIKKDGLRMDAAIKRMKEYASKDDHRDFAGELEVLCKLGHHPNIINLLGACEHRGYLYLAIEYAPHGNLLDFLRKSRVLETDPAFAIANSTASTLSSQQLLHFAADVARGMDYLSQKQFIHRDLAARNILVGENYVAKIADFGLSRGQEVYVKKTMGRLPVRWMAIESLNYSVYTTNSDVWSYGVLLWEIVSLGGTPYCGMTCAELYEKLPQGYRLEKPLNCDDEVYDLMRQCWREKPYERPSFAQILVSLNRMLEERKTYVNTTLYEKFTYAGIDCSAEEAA
As to the kind of experiment: flow cytometry on HEK/RbTie2 cells; Apparent Kd (EC50 binding).
Excerpt: as §1

Test [10] addresses T1, human full-length Tie2 on cells. In words: flow cytometry on HUVEC; Apparent Kd (EC50 binding).
Excerpt: as §1

B1: human anti-Tie2 antibody #3 (antibody, V domains shown)
VH: DVQLVESGGGVVRPGESLRLSCTASGFTFDSYGMSWVRQAPGKGLEWVSSINVGDNTYYADSVRGRFIISRDSSRNTLYLQMNSLTAEDTAVYYCANWNSFFDYWGLGTLVTVSS
VL: EIVLTQSPGTLSLSPGEIATLSCRASQNVRSDLAWYQQKPGQAPRLLIYDASNRATGIPDRFSGSGSGTDFTLTISSLQSEDFAVYYCQQYSNWPPLTFGGGTKVEIK
notes: also called Ab #3; Antibody Clone # 3
As for B1, the “Cross-Reactivity Screen (mAb at 10 ug/mL)” value in [1] came out at 40.2; in test [5], 40.2; in [8], 32.5. The concentration giving a half-maximal response (EC50) in test [2] came out at 6.3 nM; in test [3], 1.9 nM; in test [4], 4.6 nM; in test [6], 3.7 nM; in test [9], 3.3 nM; in test [10], 1.7 nM. For the same molecule, the “EC50 of pAkt relative to total Akt in HUVEC cells (western blot, quantitative fluorescence imaging)” value in test [7] stood at 0.45 nM.
